Source: patent US20200199241A1 (Chugai, published 2020)
Numbering of substitutions follows the chain as printed. In names and notes the source's numbering stands.

B1: GpH7-B3 variant V266T/GpL16-k0 (antibody, human IgG1)
heavy: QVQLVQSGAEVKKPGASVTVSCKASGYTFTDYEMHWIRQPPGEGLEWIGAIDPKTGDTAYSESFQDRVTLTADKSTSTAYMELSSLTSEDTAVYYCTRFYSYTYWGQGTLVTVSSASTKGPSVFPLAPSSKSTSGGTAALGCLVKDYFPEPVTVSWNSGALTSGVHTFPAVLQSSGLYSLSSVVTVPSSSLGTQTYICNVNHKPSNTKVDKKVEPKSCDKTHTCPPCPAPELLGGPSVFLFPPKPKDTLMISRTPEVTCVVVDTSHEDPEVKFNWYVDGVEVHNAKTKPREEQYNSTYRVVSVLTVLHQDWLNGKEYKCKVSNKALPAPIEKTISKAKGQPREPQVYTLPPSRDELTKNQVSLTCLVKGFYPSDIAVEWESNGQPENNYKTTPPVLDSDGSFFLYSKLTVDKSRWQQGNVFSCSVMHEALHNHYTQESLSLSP
light: DIVMTQSPLSLPVTPGEPASISCQASESLVHSNRNTYLHWYLQKPGQSPQLLIYKVSNRFSGVPDRFSGSGSGTDFTLKISRVEAEDVGVYYCSQNTHVPPTFGQGTKVEIE
notes: copies: 2 + 2
B2: GpH7-B3 P329K/GpL16-k0 (antibody, human IgG1)
heavy: not shown
light: B1 light
notes: B3 variant; copies: 2 + 2
B3: GpH7-B3 variant G237K/GpL16-k0 (antibody, human IgG1)
heavy: not shown
light: B1 light
notes: copies: 2 + 2
B4: GpH7-B3 A327P/GpL16-k0 (antibody, human IgG1)
heavy: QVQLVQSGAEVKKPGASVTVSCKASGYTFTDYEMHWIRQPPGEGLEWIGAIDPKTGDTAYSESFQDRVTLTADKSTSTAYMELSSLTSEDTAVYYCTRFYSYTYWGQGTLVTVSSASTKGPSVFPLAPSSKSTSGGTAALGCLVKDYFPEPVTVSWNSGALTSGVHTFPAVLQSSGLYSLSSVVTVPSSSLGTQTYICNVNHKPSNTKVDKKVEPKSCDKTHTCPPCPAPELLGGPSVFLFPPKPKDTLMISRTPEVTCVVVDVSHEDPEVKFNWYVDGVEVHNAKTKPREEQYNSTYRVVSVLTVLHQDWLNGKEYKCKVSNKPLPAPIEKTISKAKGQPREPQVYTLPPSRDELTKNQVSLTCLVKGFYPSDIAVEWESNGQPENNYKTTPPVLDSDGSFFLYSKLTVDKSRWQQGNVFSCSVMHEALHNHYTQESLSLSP
light: B1 light
notes: B3 variant; copies: 2 + 2
B5: GpH7-B3 N325I/GpL16-k0 (antibody, human IgG1)
heavy: not shown
light: B1 light
notes: B3 variant; copies: 2 + 2
B6: GpH7-B3 A330S/GpL16-k0 (antibody, human IgG1)
heavy: not shown
light: B1 light
notes: B3 variant; copies: 2 + 2
B7: GpH7-B3 A327S/GpL16-k0 (antibody, human IgG1)
heavy: not shown
light: B1 light
notes: B3 variant; copies: 2 + 2
B8: GpH7-B3 A330P/GpL16-k0 (antibody, human IgG1)
heavy: not shown
light: B1 light
notes: B3 variant; copies: 2 + 2
B9: GpH7-B3 A327M/GpL16-k0 (antibody, human IgG1)
heavy: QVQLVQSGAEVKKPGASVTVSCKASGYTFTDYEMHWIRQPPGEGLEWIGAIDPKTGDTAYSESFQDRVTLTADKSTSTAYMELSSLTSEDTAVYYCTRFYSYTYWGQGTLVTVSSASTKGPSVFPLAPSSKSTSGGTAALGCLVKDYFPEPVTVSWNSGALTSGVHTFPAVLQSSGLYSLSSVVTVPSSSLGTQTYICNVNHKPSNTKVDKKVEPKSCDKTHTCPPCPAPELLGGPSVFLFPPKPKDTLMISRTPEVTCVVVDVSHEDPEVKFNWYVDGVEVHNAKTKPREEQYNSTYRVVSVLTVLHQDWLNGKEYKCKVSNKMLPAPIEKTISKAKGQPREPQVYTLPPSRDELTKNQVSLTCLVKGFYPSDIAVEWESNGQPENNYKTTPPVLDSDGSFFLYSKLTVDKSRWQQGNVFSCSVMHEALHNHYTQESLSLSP
light: B1 light
notes: B3 variant; copies: 2 + 2
B10: GpH7-B3 A327L/GpL16-k0 (antibody, human IgG1)
heavy: not shown
light: B1 light
notes: B3 variant; copies: 2 + 2
B11: GpH7-B3 variant V266Y/GpL16-k0 (antibody, human IgG1)
heavy: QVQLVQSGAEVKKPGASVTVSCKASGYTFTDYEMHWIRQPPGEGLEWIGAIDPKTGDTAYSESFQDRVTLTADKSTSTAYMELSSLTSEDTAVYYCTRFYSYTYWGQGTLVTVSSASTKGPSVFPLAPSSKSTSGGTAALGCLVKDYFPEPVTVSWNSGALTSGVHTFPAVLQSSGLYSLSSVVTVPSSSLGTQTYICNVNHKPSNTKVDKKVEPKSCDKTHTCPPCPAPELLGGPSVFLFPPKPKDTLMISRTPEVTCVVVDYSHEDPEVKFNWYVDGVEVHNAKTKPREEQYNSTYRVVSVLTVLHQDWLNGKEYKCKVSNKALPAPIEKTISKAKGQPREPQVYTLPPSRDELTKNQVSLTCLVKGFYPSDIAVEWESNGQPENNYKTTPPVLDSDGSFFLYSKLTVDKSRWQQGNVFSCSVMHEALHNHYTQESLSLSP
light: B1 light
notes: copies: 2 + 2
B12: GpH7-B3 A327F/GpL16-k0 (antibody, human IgG1)
heavy: not shown
light: B1 light
notes: B3 variant; copies: 2 + 2
B13: GpH7-B3 A327T/GpL16-k0 (antibody, human IgG1)
heavy: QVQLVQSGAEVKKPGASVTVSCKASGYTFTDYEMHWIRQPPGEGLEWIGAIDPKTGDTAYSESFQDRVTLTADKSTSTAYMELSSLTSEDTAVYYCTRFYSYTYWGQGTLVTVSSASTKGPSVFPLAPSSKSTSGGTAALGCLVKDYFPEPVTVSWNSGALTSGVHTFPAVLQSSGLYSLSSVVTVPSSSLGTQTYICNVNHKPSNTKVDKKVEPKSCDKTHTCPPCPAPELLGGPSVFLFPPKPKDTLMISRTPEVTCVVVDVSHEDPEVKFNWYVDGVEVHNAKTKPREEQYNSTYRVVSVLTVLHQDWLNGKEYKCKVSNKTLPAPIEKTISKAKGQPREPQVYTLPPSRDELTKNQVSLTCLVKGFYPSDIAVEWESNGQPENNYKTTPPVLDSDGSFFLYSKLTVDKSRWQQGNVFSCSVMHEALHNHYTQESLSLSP
light: B1 light
notes: B3 variant; copies: 2 + 2
B14: GpH7-B3 S298W/GpL16-k0 (antibody, human IgG1)
heavy: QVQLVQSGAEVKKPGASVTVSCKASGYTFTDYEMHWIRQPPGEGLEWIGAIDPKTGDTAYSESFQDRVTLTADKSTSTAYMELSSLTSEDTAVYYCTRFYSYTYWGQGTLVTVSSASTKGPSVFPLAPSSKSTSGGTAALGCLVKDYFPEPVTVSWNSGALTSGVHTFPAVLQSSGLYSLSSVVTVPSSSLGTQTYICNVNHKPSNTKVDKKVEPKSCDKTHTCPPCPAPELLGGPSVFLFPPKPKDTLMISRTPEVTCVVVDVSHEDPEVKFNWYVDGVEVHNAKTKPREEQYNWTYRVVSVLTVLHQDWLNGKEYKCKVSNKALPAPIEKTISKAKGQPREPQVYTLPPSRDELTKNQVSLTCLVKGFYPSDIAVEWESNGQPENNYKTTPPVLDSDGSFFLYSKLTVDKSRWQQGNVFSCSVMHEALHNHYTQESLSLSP
light: B1 light
notes: B3 variant; copies: 2 + 2
B15: GpH7-B3 A327Y/GpL16-k0 (antibody, human IgG1)
heavy: not shown
light: B1 light
notes: B3 variant; copies: 2 + 2
B16: GpH7-B3 A327I/GpL16-k0 (antibody, human IgG1)
heavy: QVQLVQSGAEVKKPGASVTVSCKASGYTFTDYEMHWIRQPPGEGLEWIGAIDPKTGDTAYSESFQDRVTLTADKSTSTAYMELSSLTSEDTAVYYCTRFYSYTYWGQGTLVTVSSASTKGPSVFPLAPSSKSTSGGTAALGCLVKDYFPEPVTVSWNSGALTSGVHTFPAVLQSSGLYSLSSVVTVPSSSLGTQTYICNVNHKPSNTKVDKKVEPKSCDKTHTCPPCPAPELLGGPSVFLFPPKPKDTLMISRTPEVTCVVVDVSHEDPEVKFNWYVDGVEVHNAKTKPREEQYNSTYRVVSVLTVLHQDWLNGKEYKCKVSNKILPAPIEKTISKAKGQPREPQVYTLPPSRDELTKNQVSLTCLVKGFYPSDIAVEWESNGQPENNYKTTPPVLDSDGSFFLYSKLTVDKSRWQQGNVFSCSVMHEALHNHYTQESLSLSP
light: B1 light
notes: B3 variant; copies: 2 + 2
B17: GpH7-B3 A327Q/GpL16-k0 (antibody, human IgG1)
heavy: not shown
light: B1 light
notes: B3 variant; copies: 2 + 2
B18: GpH7-B3 A327K/GpL16-k0 (antibody, human IgG1)
heavy: not shown
light: B1 light
notes: B3 variant; copies: 2 + 2
B19: GpH7-B3 A327H/GpL16-k0 (antibody, human IgG1)
heavy: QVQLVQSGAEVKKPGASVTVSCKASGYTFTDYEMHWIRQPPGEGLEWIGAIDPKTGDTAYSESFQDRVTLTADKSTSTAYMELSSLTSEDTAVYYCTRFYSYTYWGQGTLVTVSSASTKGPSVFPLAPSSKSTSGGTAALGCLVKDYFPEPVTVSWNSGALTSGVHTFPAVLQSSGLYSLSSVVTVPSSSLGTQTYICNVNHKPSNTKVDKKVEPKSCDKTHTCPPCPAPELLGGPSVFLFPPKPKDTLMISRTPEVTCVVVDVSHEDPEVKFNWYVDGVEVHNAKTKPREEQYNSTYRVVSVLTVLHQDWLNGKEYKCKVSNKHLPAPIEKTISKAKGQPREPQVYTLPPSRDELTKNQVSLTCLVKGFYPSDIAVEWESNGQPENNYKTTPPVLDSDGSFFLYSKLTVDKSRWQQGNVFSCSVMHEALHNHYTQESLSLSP
light: B1 light
notes: B3 variant; copies: 2 + 2
B20: GpH7-B3 A327V/GpL16-k0 (antibody, human IgG1)
heavy: not shown
light: B1 light
notes: B3 variant; copies: 2 + 2
B21: GpH7-B3 A327R/GpL16-k0 (antibody, human IgG1)
heavy: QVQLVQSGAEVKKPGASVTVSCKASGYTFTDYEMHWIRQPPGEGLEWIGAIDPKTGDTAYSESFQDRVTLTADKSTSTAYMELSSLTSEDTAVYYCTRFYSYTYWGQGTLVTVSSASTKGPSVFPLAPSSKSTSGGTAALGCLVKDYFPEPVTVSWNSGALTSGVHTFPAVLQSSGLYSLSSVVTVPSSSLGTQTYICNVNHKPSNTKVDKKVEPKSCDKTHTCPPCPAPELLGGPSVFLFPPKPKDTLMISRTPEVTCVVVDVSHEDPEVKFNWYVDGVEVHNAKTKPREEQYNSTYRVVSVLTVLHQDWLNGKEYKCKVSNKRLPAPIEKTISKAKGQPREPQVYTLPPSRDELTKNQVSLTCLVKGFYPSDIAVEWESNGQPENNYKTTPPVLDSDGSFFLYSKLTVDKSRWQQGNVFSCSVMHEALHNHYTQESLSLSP
light: B1 light
notes: B3 variant; copies: 2 + 2
B22: GpH7-B3 variant V266W/GpL16-k0 (antibody, human IgG1)
heavy: not shown
light: B1 light
notes: copies: 2 + 2
B23: GpH7-B3 D270A/GpL16-k0 (antibody, human IgG1)
heavy: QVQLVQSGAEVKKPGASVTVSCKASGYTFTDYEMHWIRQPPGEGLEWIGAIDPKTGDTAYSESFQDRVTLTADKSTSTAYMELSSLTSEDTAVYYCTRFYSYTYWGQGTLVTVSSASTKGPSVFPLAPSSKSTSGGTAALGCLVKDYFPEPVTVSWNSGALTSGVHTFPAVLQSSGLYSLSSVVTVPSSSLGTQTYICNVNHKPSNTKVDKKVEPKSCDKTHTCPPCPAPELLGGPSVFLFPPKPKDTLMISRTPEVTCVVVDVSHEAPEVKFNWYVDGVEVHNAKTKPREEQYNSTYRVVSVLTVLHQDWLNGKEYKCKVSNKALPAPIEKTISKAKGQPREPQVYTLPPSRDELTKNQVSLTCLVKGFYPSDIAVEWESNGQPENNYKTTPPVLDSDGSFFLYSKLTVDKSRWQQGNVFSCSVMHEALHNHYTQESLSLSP
light: B1 light
notes: B3 variant; copies: 2 + 2
B24: GpH7-B3 variant V2668/GpL16-k0 (antibody, human IgG1)
heavy: not shown
light: B1 light
notes: copies: 2 + 2
B25: GpH7-B3 A327W/GpL16-k0 (antibody, human IgG1)
heavy: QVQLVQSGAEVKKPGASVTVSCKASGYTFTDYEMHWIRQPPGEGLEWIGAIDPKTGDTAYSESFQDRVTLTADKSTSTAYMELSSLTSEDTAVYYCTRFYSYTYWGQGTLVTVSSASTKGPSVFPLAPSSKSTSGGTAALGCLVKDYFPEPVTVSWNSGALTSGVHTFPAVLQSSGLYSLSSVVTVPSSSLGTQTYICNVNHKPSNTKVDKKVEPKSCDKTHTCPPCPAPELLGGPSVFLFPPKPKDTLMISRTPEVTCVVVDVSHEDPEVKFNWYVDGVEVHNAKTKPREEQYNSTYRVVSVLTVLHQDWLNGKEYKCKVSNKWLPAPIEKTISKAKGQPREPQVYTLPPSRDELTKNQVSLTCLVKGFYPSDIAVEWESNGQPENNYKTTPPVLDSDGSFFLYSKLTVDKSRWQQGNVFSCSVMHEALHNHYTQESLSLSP
light: B1 light
notes: B3 variant; copies: 2 + 2

Tests used:
[1] = biological target: T1, human FcγRIIIa(F) (human, UniProt P08637 17-208, limits assumed); experiment: SPR (Biacore);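 further: antibody variants captured on sensor chip, Fcγ receptor flowed over at 25 °C, bound receptor normalized to amount of captured antibody, expressed relative to reference antibody set as 100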
T1 construct: also called FcgRIIIaF; allotype F158
Protocol: (§1) Interaction between each modified antibody and Fcγ receptor prepared in the manner described above was analyzed using the BIACORE™ T100 surface plasmon resonance system (GE Healthcare), BIACORE™ T200 surface plasmon resonance system (GE Healthcare), BIACORE™ A100 surface plasmon resonance system or BIACORE™ 4000 surface plasmon resonance system. HBS-EP+ (GE Healthcare) was used for the running buffer, and measurements were carried out at 25° C. The chips used were chips in which antigen peptides, Protein A (Thermo Scientific), Protein A/G (Thermo Scientific) or Protein L (ACTIGEN® protein (Alltech or BioVision) were immobilized on the Series S Sensor Chip CMS (GE Healthcare) or Series S Sensor Chip CM4 (GE Healthcare) by amine coupling, or chips in which preliminarily biotinylated antigen peptides were allowed to interact and then immobilized on the Series S Sensor Chip SA (certified) (GE Healthcare). The target antibodies were captured on these sensor chips, Fcγ receptor diluted with the running buffer was allowed to interact, followed by measurement of the amount of bound antibody. The amounts bound were compared between antibodies. However, since the amount of Fcγ receptor bound depends on the amount of captured antibody, the values used for comparison were first corrected by dividing the amount of Fcγ receptor bound by the captured amount of each antibody. Through reaction with 10 mM glycine-HCl at pH 1.5, the sensor chips were regenerated by washing off antibody captured on the sensor chips and used repeatedly.
(§2) Binding strength was evaluated according to the following method based on the results of analyzing the interaction with each FcγR. […] That value was then further multiplied by 100, and the resulting value was used as an indicator of relative binding activity to each FcγR.

[2] = biological target: T2, human FcγRIa (human, UniProt P12314 16-292, limits assumed); experiment: SPR (Biacore);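 further: antibody variants captured on sensor chip, Fcγ receptor flowed over at 25 °C, bound receptor normalized to amount of captured antibody, expressed relative to reference antibody set as 100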
T2 construct: also called FcgRIa; FcγRI (CD64)
Protocol: as §1, §2

[3] = biological target: T3, human FcγRIIa(H) (human, UniProt P12318 36-217); experiment: SPR (Biacore);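 further: antibody variants captured on sensor chip, Fcγ receptor flowed over at 25 °C, bound receptor normalized to amount of captured antibody, expressed relative to reference antibody set as 100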
T3 construct: also called FcgRIIaH; FcγRIIa type H
T3 sequence: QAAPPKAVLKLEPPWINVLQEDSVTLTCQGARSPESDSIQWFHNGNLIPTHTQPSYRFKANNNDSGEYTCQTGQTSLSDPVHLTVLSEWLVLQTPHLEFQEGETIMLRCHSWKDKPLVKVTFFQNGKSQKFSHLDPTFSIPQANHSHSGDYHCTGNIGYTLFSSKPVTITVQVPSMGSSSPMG
Protocol: as §1, §2

[4] = biological target: T4, human FcγRIIa(R) (human, UniProt P12318 36-217); experiment: SPR (Biacore);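 further: antibody variants captured on sensor chip, Fcγ receptor flowed over at 25 °C, bound receptor normalized to amount of captured antibody, expressed relative to reference antibody set as 100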
T4 construct: also called FcgRIIaR; FcγRIIa type R
T4 chain: T3 sequence with H133R
Protocol: as §1, §2

[5] = biological target: T5, human FcγRIIb (human, UniProt P31994 43-217, limits assumed); experiment: SPR (Biacore)
T5 construct: also called FcgRIIb
T5 sequence: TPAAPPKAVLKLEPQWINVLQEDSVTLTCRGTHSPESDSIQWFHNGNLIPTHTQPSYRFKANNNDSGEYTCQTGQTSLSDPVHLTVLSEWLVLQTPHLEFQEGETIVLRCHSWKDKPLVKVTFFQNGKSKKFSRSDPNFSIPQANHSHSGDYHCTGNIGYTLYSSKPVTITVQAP
Protocol: as §1, §2

[6] = biological target: T6, human FcγRIIb (human, UniProt P31994 43-217, limits assumed); experiment: SPR, captured antibody;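 further: antibody captured on a sensor chip, Fcγ receptor flowed over at 25 °C, receptor binding normalized to the captured antibody amount and expressed relative to the reference antibody ×100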
T6 construct: also called FcgRIIb; hFcgRIIb
T6 sequence: T5 sequence

[7] = biological target: T7, human FcγRIIa(R) (human, UniProt P12318 36-217); experiment: SPR, captured antibody;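 further: antibody captured on a sensor chip, Fcγ receptor flowed over at 25 °C, receptor binding normalized to the captured antibody amount and expressed relative to the reference antibody ×100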
T7 construct: also called FcgRIIaR; hFcgRIIa(R)
T7 chain: T3 sequence with H133R

[8] = biological target: T8, human FcγRIa (human, UniProt P12314 16-292, limits assumed); experiment: SPR, captured antibody;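 further: antibody captured on a sensor chip, Fcγ receptor flowed over at 25 °C, receptor binding normalized to the captured antibody amount and expressed relative to the reference antibody ×100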
T8 construct: also called FcgRIa; hFcgRIa

[9] = biological target: T9, human FcγRIIa(H) (human, UniProt P12318 36-217); experiment: SPR, captured antibody;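 further: antibody captured on a sensor chip, Fcγ receptor flowed over at 25 °C, receptor binding normalized to the captured antibody amount and expressed relative to the reference antibody ×100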
T9 construct: also called FcgRIIaH; hFcgRIIa(H)
T9 sequence: T3 sequence

Row | Binder | relative binding activity [1] | relative binding activity [2] | relative binding activity [3] | relative binding activity [4] | relative binding activity [5] | relative binding activity [6] | relative binding activity [7] | relative binding activity [8] | relative binding activity [9]
1 | B1 | 12 % of GpH7-B3/GpL16-k0 | 89 % of GpH7-B3/GpL16-k0 | 18 % of GpH7-B3/GpL16-k0 | 66 % of GpH7-B3/GpL16-k0 | 52 % of GpH7-B3/GpL16-k0 |  |  |  | 
2 | B2 |  |  |  |  |  | -2 % of GpH7-B3/GpL16-k0 | -2 % of GpH7-B3/GpL16-k0 | 6 % of GpH7-B3/GpL16-k0 | -1 % of GpH7-B3/GpL16-k0
3 | B3 | -1 % of GpH7-B3/GpL16-k0 | 2 % of GpH7-B3/GpL16-k0 | 0 % of GpH7-B3/GpL16-k0 | 0 % of GpH7-B3/GpL16-k0 | -1 % of GpH7-B3/GpL16-k0 |  |  |  | 
4 | B4 |  |  |  |  |  | 18 % of GpH7-B3/GpL16-k0 | 14 % of GpH7-B3/GpL16-k0 | 95 % of GpH7-B3/GpL16-k0 | 16 % of GpH7-B3/GpL16-k0
5 | B5 |  |  |  |  |  |  | 76 % of GpH7-B3/GpL16-k0 | 94 % of GpH7-B3/GpL16-k0 | 8 % of GpH7-B3/GpL16-k0
6 | B6 |  |  |  |  |  | -3 % of GpH7-B3/GpL16-k0 | 0 % of GpH7-B3/GpL16-k0 | 58 % of GpH7-B3/GpL16-k0 | 0 % of GpH7-B3/GpL16-k0
7 | B7 |  |  |  |  |  | 62 % of GpH7-B3/GpL16-k0 | 59 % of GpH7-B3/GpL16-k0 | 88 % of GpH7-B3/GpL16-k0 | 51 % of GpH7-B3/GpL16-k0
8 | B8 |  |  |  |  |  | 39 % of GpH7-B3/GpL16-k0 | 42 % of GpH7-B3/GpL16-k0 | 87 % of GpH7-B3/GpL16-k0 | 25 % of GpH7-B3/GpL16-k0
9 | B9 |  |  |  |  |  | 40 % of GpH7-B3/GpL16-k0 | 38 % of GpH7-B3/GpL16-k0 | 95 % of GpH7-B3/GpL16-k0 | 55 % of GpH7-B3/GpL16-k0
10 | B10 |  |  |  |  |  | 34 % of GpH7-B3/GpL16-k0 | 31 % of GpH7-B3/GpL16-k0 | 98 % of GpH7-B3/GpL16-k0 | 16 % of GpH7-B3/GpL16-k0
11 | B11 | 0 % of GpH7-B3/GpL16-k0 | 75 % of GpH7-B3/GpL16-k0 | 2 % of GpH7-B3/GpL16-k0 | 18 % of GpH7-B3/GpL16-k0 | 15 % of GpH7-B3/GpL16-k0 |  |  |  | 
12 | B12 |  |  |  |  |  | 22 % of GpH7-B3/GpL16-k0 | 17 % of GpH7-B3/GpL16-k0 | 95 % of GpH7-B3/GpL16-k0 | 37 % of GpH7-B3/GpL16-k0
13 | B13 |  |  |  |  |  | 37 % of GpH7-B3/GpL16-k0 | 27 % of GpH7-B3/GpL16-k0 | 64 % of GpH7-B3/GpL16-k0 | 12 % of GpH7-B3/GpL16-k0
14 | B14 |  |  |  |  |  |  | 19 % of GpH7-B3/GpL16-k0 | 69 % of GpH7-B3/GpL16-k0 | 17 % of GpH7-B3/GpL16-k0
15 | B15 |  |  |  |  |  | 18 % of GpH7-B3/GpL16-k0 | 17 % of GpH7-B3/GpL16-k0 | 97 % of GpH7-B3/GpL16-k0 | 26 % of GpH7-B3/GpL16-k0
16 | B16 |  |  |  |  |  | 46 % of GpH7-B3/GpL16-k0 | 37 % of GpH7-B3/GpL16-k0 | 98 % of GpH7-B3/GpL16-k0 | 12 % of GpH7-B3/GpL16-k0
17 | B17 |  |  |  |  |  | 29 % of GpH7-B3/GpL16-k0 | 34 % of GpH7-B3/GpL16-k0 | 94 % of GpH7-B3/GpL16-k0 | 47 % of GpH7-B3/GpL16-k0
18 | B18 |  |  |  |  |  | 0 % of GpH7-B3/GpL16-k0 | -8 % of GpH7-B3/GpL16-k0 | 57 % of GpH7-B3/GpL16-k0 | 0 % of GpH7-B3/GpL16-k0
19 | B19 |  |  |  |  |  | 35 % of GpH7-B3/GpL16-k0 | 32 % of GpH7-B3/GpL16-k0 | 93 % of GpH7-B3/GpL16-k0 | 23 % of GpH7-B3/GpL16-k0
20 | B20 |  |  |  |  |  | 43 % of GpH7-B3/GpL16-k0 | 46 % of GpH7-B3/GpL16-k0 | 97 % of GpH7-B3/GpL16-k0 | 17 % of GpH7-B3/GpL16-k0
21 | B21 |  |  |  |  |  | -3 % of GpH7-B3/GpL16-k0 | -11 % of GpH7-B3/GpL16-k0 | 51 % of GpH7-B3/GpL16-k0 | -2 % of GpH7-B3/GpL16-k0
22 | B22 | -1 % of GpH7-B3/GpL16-k0 | 78 % of GpH7-B3/GpL16-k0 | 0 % of GpH7-B3/GpL16-k0 | 37 % of GpH7-B3/GpL16-k0 | 26 % of GpH7-B3/GpL16-k0 |  |  |  | 
23 | B23 |  |  |  |  |  | 5 % of GpH7-B3/GpL16-k0 | 3 % of GpH7-B3/GpL16-k0 | 87 % of GpH7-B3/GpL16-k0 | 66 % of GpH7-B3/GpL16-k0
24 | B24 | 3 % of GpH7-B3/GpL16-k0 | 79 % of GpH7-B3/GpL16-k0 | 5 % of GpH7-B3/GpL16-k0 | 26 % of GpH7-B3/GpL16-k0 | 18 % of GpH7-B3/GpL16-k0 |  |  |  | 
25 | B25 |  |  |  |  |  | 34 % of GpH7-B3/GpL16-k0 | 34 % of GpH7-B3/GpL16-k0 | 100 % of GpH7-B3/GpL16-k0 | 21 % of GpH7-B3/GpL16-k0
